Data taken from paper PMC12499416, “ATF3 Deficiency Exacerbates Ageing‐Induced Atherosclerosis and Clinical Intervention Strategy” (Advanced Science, 2025).

Molecular target: T1, ATG7 (analyte of the surface plasmon resonance assay) (UniProt Q9D906 1-698)
T1 construct: ATG7 used for surface plasmon resonance; Source of the protein may stand in the Supporting Information
T1 sequence (looked up): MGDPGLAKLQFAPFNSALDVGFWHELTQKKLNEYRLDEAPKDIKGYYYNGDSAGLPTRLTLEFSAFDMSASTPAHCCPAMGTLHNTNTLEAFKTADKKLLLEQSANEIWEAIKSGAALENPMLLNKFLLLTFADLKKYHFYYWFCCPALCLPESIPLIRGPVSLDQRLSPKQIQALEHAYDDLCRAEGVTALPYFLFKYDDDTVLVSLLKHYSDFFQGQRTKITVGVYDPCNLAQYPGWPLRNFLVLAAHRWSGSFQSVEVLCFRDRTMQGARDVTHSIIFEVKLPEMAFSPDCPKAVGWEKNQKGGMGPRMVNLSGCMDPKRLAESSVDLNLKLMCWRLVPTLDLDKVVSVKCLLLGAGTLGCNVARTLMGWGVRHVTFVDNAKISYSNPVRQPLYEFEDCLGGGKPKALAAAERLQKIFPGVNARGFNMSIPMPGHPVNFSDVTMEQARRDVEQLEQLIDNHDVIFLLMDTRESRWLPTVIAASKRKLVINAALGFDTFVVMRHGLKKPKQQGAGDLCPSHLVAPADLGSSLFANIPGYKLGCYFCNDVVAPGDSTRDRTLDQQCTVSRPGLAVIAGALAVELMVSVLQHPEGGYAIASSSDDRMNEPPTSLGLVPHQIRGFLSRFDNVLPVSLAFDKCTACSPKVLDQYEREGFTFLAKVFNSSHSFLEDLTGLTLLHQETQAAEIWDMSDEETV
Experiment: SPR; ATF3 immobilized on the CM5 sensor chip, ATG7 as analyte
Conditions: both partners purified

Kd: 963 nM
B1: ATF3 immobilized on the CM5 sensor chip (natural protein)
chain: MMLQHPGQVSASEVSATAIVPCLSPPGSLVFEDFANLTPFVKEELRFAIQNKHLCHRMSSALESVTVNNRPLEMSVTKSEAAPEEDERKRRRRERNKIAAAKCRNKKKEKTECLQKESEKLESVNAELKAQIEELKNEKQHLIYMLNLHRPTCIVRAQNGRTPEDERNLFIQQIKEGTLQS
